This test addresses Phospholipase A1 (PlaA1) from Serratia marcescens, purified (Serratia marcescens). Put plainly: SPR; Biacore T200; PlaA1 as ligand (diluted to 20 µg/mL), ∆N27 PlaS as analyte at 0, 0.156, 0.3125, 0.625, 1.25, 2.5 and 5 µM. A general note: SPR reads the build-up and loss of mass on a sensor chip optically.

For “N-terminal truncated PlaS (∆N27 PlaS) from Serratia marcescens, purified (domain or fragment)”, the Kd (commonly the free concentration of one partner at which half of the binding sites on the other are occupied at equilibrium, for simple one-to-one binding) was found to be 8.49 nM; the koff (commonly a measure of how fast the partners let go of each other) came out at 1.26e-05 s⁻¹; the kon (as a rule, the second-order rate constant of association) was 1480 M⁻¹ s⁻¹.

These data come from publication PMC11199421.
